Test results as given in publication PMC3566775.

Biological target: Mouse SR-BI CGG mutant (positions 321-323) (mouse) (UniProt Q61009)
Test: radioligand binding

- reduction in binding compared to the WT receptor: 20%
Substance: Human high density lipoprotein (HDL), labeled with 125I (complex)
